Assay results published in US20220154156A1, “PROTEINS AND METHODS FOR DISRUPTING BACTERIAL COMMUNICATION” (REGENTS OF THE UNIVERSITY OF MINNESOTA, priority 2019, published 2022).
Values joined by “and” are separate entries in the source; they are usually repeats but may differ in a detail not shown here. Equal values may be shown once. Numbered stars: 1 amine (or outer) side, 2 acyl side, 3 side chain; on linkers, the order of the positions; unused ones are H or OH. Bridge positions count the residues as written; N and C are the ends. Square brackets hold non-standard residues; d marks the D form. Peptide text beside a SMILES is read from it. X1 = CC(C)CCCCCCCCC[C@H](CC(=O)[*:1])O[*:2]

Tests used:
[1] = system: corrosion tubercles on steel coupons; assay: Biocorrosion of coated steel coupons in Duluth-Superior Harbor water, 8 weeks; design: concentration or dose not given beside the values; conditions: silica gel coating, two months in DSH water
Method: The steel coupons were washed with soap water, lightly brushed for a few seconds with a test tube brush, and then rinsed with Milli-Q water to remove any loose material. Each coupon was designated with a unique number and weighed before being randomly assigned to a specific experimental treatment.
Each compound or enzyme was added to 5 ml of the silica gel matrix to develop different coating treatments. These coatings were applied by dipping coupons into the appropriate gel mixture for 1 minute, and then the coating on the coupon surface was air-dried at room temperature for 2 hours.
Six treatments and three controls were investigated for corrosion rate and changes in bacterial communities (Table 10). Each treatment or control contained three replicate steel coupons. After the triplicate steel coupons were coated with each biochemical, enzyme or bacterial treatment, they were incubated in experimental microcosms constructed from 10-gallon glass aquaria (Aqueon Glass, 50.8 cm×25.4 cm×30.5 cm) (FIG. 24). Each microcosm was equipped with an aquarium pump (Aquarium Systems Mini-Jet 404) to constantly circulate the water (˜2 L hr−1), and covered with a piece of acrylic with one corner cut out to allow gas exchange. The coupons were hold with plastic holders and immersed in water taken from the DSH for 8 weeks and then recovered for analyses.
The coupons in each treatment was photographed by the end of the experiment. Biocorrosion was evaluated by the number and coverage of corrosion tubercles, and also by imaging of coupon surfaces with an environmental scanning electron microscope (ESEM). The coupon images were captured with DSLR camera immediately after being removed from the harbor water, and then tubercle numbers and total area in digital images were measured using the analyze menu within ImageJ software (NIH, Bethesda, Md., USA). Surface roughness measurements were also made after the exposed coupons were cleaned with ASTM G1-90 iron and steel chemical cleaning procedure (2 min in 37% HCl, 50 g/L SnCl2). A Hitachi TM-3030 ESEM was used to view details of the cleaned coupon surface and the 3D-View software was used to generate surface roughness measurements (SRa). Statistics analysis (T-tests) of the tubercle numbers, coverage and surface roughness were performed using Microsoft Excel software.

[2] = system: bacterial communities at the surface of the steel; assay: 16S rDNA analysis of microbial community on steel coupons; conditions: treated coupons
Method: After photo imaging, on each of the coupon surface, all material including biofilm and tubercles were scraped into a sterile 50 ml polypropylene centrifuge tube (Corning, N.Y., USA) using a steel scraper. A 0.5 g subsample of the surface material from each coupon sample was used for DNA extraction using PowerSoil DNA kit (MoBio Laboratories). The extracted DNA was used to sequence the V4 region of 16S rDNA gene and describe changes in the composition of bacterial communities. DNA samples were quantified with a NanoDrop 2000 Spectrophotometer (Thermo Scientific, Waltham, Mass. USA) and then sent overnight to the University of Minnesota Genomics Center for 16S rDNA sequencing. 30 samples were multiplexed into a single run of Illumina MiSeq paired-end 300 cycles, which was expected to generate a total of 15 million sequences of the 254 bp portions of the 16S rDNA V4 region.
Sequence data were processed and analyzed using the MOTHUR program. To ensure high quality data for analysis, sequence reads containing ambiguous bases, homopolymers >7 bp, more than one mismatch in the primer sequence, or an average per base quality score below 25 were removed. Sequences that only appear once in the total set were assumed to be a result of sequencing error and removed from the analysis. Chimeric sequences were also removed using the UCHIME algorithm within the MOTHUR program. […]

[3] = target: GcL, quorum quenching lactonase from Geobacillus caldoxylosilyticus (Parageobacillus caldoxylosilyticus) (Geobacillus caldoxylosilyticus (Parageobacillus caldoxylosilyticus)); assay: X-ray crystal structure, homodimer interface analysis
[4] = system: Pseudomonas aeruginosa; assay: Caenorhabditis elegans infection models (slow-killing, paralysis); format: in vivo; conditions: dose-dependent
From the text: FIG. 34A-34C show protection of Caenorhabditis elegans from infection by Pseudomonas aeruginosa by lactonases. Slow-killing, gut infection assay performed with P. aeruginosa. Lactonases SsoPox (A) and GcL (B) are sprayed in the petri dish plate, and final concentrations are given. (C) Paralysis assay by P. aeruginosa, and treatment with SsoPox. […] OP50 Escherichia coli strain serves as a non-virulent control.
The protection by lactonases is dose-dependent (FIG. 34) in both models.

[5] = system: soil bacterial community; assay: Different lactonases on soil microbial community (Example 8); format: cell-based; conditions: 7 days, vs inactive SsoPox 5A8
Method: Principal component analysis (PCA) based on deep bacterial 16S rDNA sequences (Illumina V4 region).
The same experiments as described above were performed on the same soil microbial community but with two different lactonases, GcL, and Ssopox W263I. These enzymes differ primarily by their substrate specificity. […] This is important because different bacteria use different AHLs to communicate. Indeed, The structure of AHLs vary a lot with respect to the length of N-acyl chains (from C4 to C18), the hydroxyl or oxo group of the acyl chain and the saturated or unsaturated state of the carbon chain^1. The hydrophobicity of AHLs relates to their passive diffusion through membranes. […] In fact, regulatory circuits may be interconnected, like in P. aeruginosa^6, and allow for compensatory responses: if the LasI/LasR system is inactivated, the RhlI/RhlR system can still control LasI/LasR-spectific functions^7.

[6] = system: algae and Zebra mussels; assay: Antifouling activity of acrylic-lactonase coating, Lake Minnetonka, 1 month; conditions: 200 μg/mL, polycarbonate, controls BSA, copper oxide
Method: Various polycarbonate samples were submerged in Lake Minnetonka (Tonka bay marina) for 1 month. Coatings were prepared with 200 μg/mL of control ingredients (BSA or copper oxide (CuO)) and of lactonases (SsoPox and GcL). Large zebra mussels are circled.
We note that microscopy imaging highlights large differences in the surface colonization between the different treatments.

[7] = Lactonase assay (pH indicator, cresol purple), kinetic measurements; format: biochemical
Method: Kinetic measurements. The determination of GcL catalytic efficiency was performed by using a microplate reader (Synergy HTX, BioTek, USA) and the software Gen5.1 over a range of substrates (FIG. 2). The reactions were operate in a 96-well plate at a path length of 5.8 mm for a 200 μl reaction volume at room temperature. The catalytic parameters were achieved by fitting the data to Michaelis-Menten equation with the Graph-Pad Prism 5 software. When, Vmax was not reached, the catalytic efficiency was determined by fitting the linear part of Michaelis-Menten plot to a linear regression using Graph-Pad Prism 5.
Lactonase assay. The AHL lactonolysis consisting in the opening of the lactone ring generates a proton, and leads to an acidification of the media. This property allowed the characterization of the lactonases by using a pH indicator assay. To perform the experiment 5 μl of enzyme were added to a solution containing 10 μl of substrates at various concentrations and 185 μl of lactonase buffer (2.5 mM Bicine pH 8.3, 150 mM NaCl, 0.2 mM CoCl2, 0.2 mM cresol purple, 0.5% DMSO). This assay was performed at 25° C. and the time course of the lactones hydrolysis was recorded at 577 nm. The characterization of the enzyme was proceeding against a large panel of AHLs: C4-AHL, C6-AHL, C8-AHL, C10-AHL, 3-oxo-C8-AHL and against γ-Butyrolactone, γ-Heptalactone, γ-Nonalactone, γ-Decanolactone, δ-Valerolactone, δ-Octanolactone, δ-Nonalactone, δ-Decalactone, ε-Caprolactone, ε-Decalactone, Whiskey lactone.

[8] = at 75° C.; cited from earlier work

CC(C)CCCCCCCCC[C@@H]1CC(=O)N[C@@H](CCC(=O)O)C(=O)N[C@@H](CC(C)C)C(=O)N[C@H](CC(C)C)C(=O)N[C@@H](C(C)C)C(=O)N[C@@H](CC(=O)O)C(=O)N[C@H](CC(C)C)C(=O)N[C@@H](CC(C)C)C(=O)O1 [surfactin] (EL[dL]VD[dL]L; linker N-C via X1)
reduction of the coverage of corrosion tubercles [1]: 37%
reduction of the number (formation) of corrosion tubercles [1]: 31%
abundance of Burkholderiales, Pseudomonadales and Rhodospirillales [2]: significantly reduced

GcL, quorum quenching lactonase from Geobacillus caldoxylosilyticus (Parageobacillus caldoxylosilyticus) (from UniProt A3FJ64 1-250) (enzyme)
interface surface between dimer [3]: 1180 Å^2

B1: GcL: lactonase isolated from the thermophilic bacteria Geobacillus caldoxylosilyticus, SEQ ID NO:1 (protein, listed as Parageobacillus caldoxylosilyticus)
chain: MTVKKLYFIPAGRCMLDHSSVNSALTPGKLLNLPVWCYLLETEEGPILVDTGMPESAVNNEGLFNGTFVEGQILPKMTEEDRIVNILKRVGYEPDDLLYIISSHLHFDHAGGNGAFTNTPIIVQRTEYEAALHREEYMKECILPHLNYKIIEGDYEVVPGVQLLYTPGHSPGHQSLFIETEQSGSVLLTIDASYTKENFEDEVPFAGFDPELALSSIKRLKEVVKKEKPIIFFGHDIEQEKSCRVFPEYI
survival of Caenorhabditis elegans [4]: increase survival
planktonic microbial community composition [5]: induce differential planktonic microbial community biases
inhibition of biofouling [6]: more efficient at inhibiting biofouling than controls
substrate specificity ([7]; AHL acyl chain length): proficiently degrades lactones ranging from C4 to C12 AHLs
catalytic efficiencies ([7]; AHLs with both short and long acyl chains): 10^4 to 10^6 M^−1·s^−1
Km ([7]; range over tested substrates (with the exception of C4-AHL)): 0.5 to 20 µM and 0.67 to 21.1 µM
half-life [8]: 2.542 ± 0.167 h

B2: SsoPox: lactonase isolated from Sulfolobus solfataricus, SEQ ID NO:5 (protein, listed as Sulfolobus solfataricus)
chain: GMVRISIAGGNEIDPGSMGLTLFHEHLRLITEVVRWNWPHLYNEDEELKRAIDAVNAAKKYGVKTIIDLTVAGIGCDVRFNEKVAKATGVNIIMGTGFYTYTEIPFYFKNRGIDSLVDAFVHDITIGIQGTNTRAAFVKAVIDSSGLTKDVEMAIRAAAKAHIKTDVPIITHSFVGNKSSLDLIRIFKEEGVDLARTVIGHVGDTDDISFIEQILREGAFIGLDRFGLDIYLPLDKRVKTAIELIKRGWIDQLLLSHDYCPTIDWYPPEVVRSTVPDWTMTLIFEKVIPRMRSEGITEEQINRVLIDNPRRLFTGR
survival of Caenorhabditis elegans [4]: increase survival
inhibition of biofouling [6]: more efficient at inhibiting biofouling than controls
